Article PMC4212835

Biological target: Enterococcus faecalis pyruvate dehydrogenase complex component E2 (dihydrolipoamide acetyltransferase) (Enterococcus faecalis)
Test: SEC

Substance | relative abundance of subunits E1, E2, and E3 (mass ratio, E2 = 1) [mass ratio]
Enterococcus faecalis pyruvate dehydrogenase complex component E3 (dihydrolipoyl dehydrogenase) (from UniProt A0ACD6TCW3 1-468) (enzyme) | 1.26
Enterococcus faecalis pyruvate dehydrogenase complex component E1 (pyruvate dehydrogenase; E1α and E1β) (from UniProt A0ACD6TC15 1-371) | 2.27
